# Positions count from the first letter of the chain named.
# B1: Hu3D6VHvb1 / Hu3D6VLvb1 (antibody, V domains shown)
# VH: QVQLQQSGAELVKPGASVKLSCTASGFNIKDYYLHWVKQRPEQGLEWIGWIDPENGDTVYDPKFQGKATITADTSSNTAYLQLSSLTSEDTAVYFCSTLDFWGQGTTLTVSS
# VL: not shown
# modifications: here or on the partner: pHrodo-labeled
# B2: Hu3D6VHvb6 / Hu3D6VLvb2 (antibody, V domains shown)
# VH: EVQLVQSGAEVVKPGATVKISCKASGFTIKDYYLHWVRQRPGKGLEWIGWIDPEDGETVYDPKFQGRVTITADTSTDTAYMELSSLRSEDTAVYFCSTLDFWGQGTLVTVSS
# VL: not shown
# modifications: here or on the partner: pHrodo-labeled
# B3: Hu3D6VHvb3 / Hu3D6VLvb3 (antibody, V domains shown)
# VH: B2 VH with T28N, D55N, E57D, V59I, V68A, F95Y
# VL: DVVMTQSPLSLSVTLGEPASISCRSSQSLLDSDGKTYLNWLQQRPGQSPRRLIYLVSKLDSGVPDRFSGSGSGTDFTLKISRVEAEDVGVYYCWQGTHFPYTFGQGTKLEIKR
# modifications: here or on the partner: pHrodo-labeled
# B4: Hu3D6VHvb2 / Hu3D6VLvb2 (antibody, V domains shown)
# VH: B2 VH with T17S, T28N, D55N, E57D, V68A, M81L, R87T
# VL: not shown
# modifications: here or on the partner: pHrodo-labeled
# B5: Hu3D6VHvb6 / Hu3D6VLvb3 (antibody, V domains shown)
# VH: B2 VH
# VL: B3 VL
# modifications: here or on the partner: pHrodo-labeled
# B6: Hu3D6VHvb3 / Hu3D6VLvb2 (antibody, V domains shown)
# VH: B2 VH with T28N, D55N, E57D, V59I, V68A, F95Y
# VL: not shown
# modifications: here or on the partner: pHrodo-labeled
# B7: Hu3D6VHvb5 / Hu3D6VLvb2 (antibody, V domains shown)
# VH: B2 VH with V59I, F95Y
# VL: not shown
# modifications: here or on the partner: pHrodo-labeled
# B8: Hu3D6VHvb7 / Hu3D6VLvb2 (antibody, V domains shown)
# VH: B2 VH with F95Y
# VL: not shown
# modifications: here or on the partner: pHrodo-labeled
# B9: Hu3D6VHvb4 / Hu3D6VLvb3 (antibody, V domains shown)
# VH: B2 VH with D55N, E57D, V59I, F95Y
# VL: B3 VL
# modifications: here or on the partner: pHrodo-labeled
# B10: Hu3D6VHvb4 / Hu3D6VLvb2 (antibody, V domains shown)
# VH: B2 VH with D55N, E57D, V59I, F95Y
# VL: not shown
# modifications: here or on the partner: pHrodo-labeled
# B11: Hu3D6VHvb7 / Hu3D6VLvb3 (antibody, V domains shown)
# VH: B2 VH with F95Y
# VL: B3 VL
# modifications: here or on the partner: pHrodo-labeled
# B12: Hu3D6VHvb2 / Hu3D6VLvb3 (antibody, V domains shown)
# VH: B2 VH with T17S, T28N, D55N, E57D, V68A, M81L, R87T
# VL: B3 VL
# modifications: here or on the partner: pHrodo-labeled
# B13: Hu3D6VHvb5 / Hu3D6VLvb3 (antibody, V domains shown)
# VH: B2 VH with V59I, F95Y
# VL: B3 VL
# modifications: here or on the partner: pHrodo-labeled
# B14: 7G6 (antibody, from another filing, V domains shown)
# VH: QVQLLQPGAELVKPGASVIMSCKASGYTFTTYWITWVKQRPGQGLEWIGDIYPGSSICNYNEKFKSKATLTVDTSSSTAYMQLNSLTSEDSAVYYCAREDGYDAWFAYWGQGTLVTVSA
# VL: DVLMTQTPLSLPVSLGDQASISCRSSQSILHSNGNTYLEWYLQKPGQSPKLLICKVSNRFSGVPDRFSGSGSGTDFTLKISRVEAEDLGVYYCFQGSHVPFTFGSGTKLEIK
# Target: pHrodo-labeled 4R0N human tau P301L soluble oligomer (human), P10636
# Assay: cell-based or functional assay
# Sequence of pHrodo-labeled 4R0N human tau P301L soluble oligomer (human), P10636 (P10636 other isoform, or with tags, fused parts or gaps P301L P301L): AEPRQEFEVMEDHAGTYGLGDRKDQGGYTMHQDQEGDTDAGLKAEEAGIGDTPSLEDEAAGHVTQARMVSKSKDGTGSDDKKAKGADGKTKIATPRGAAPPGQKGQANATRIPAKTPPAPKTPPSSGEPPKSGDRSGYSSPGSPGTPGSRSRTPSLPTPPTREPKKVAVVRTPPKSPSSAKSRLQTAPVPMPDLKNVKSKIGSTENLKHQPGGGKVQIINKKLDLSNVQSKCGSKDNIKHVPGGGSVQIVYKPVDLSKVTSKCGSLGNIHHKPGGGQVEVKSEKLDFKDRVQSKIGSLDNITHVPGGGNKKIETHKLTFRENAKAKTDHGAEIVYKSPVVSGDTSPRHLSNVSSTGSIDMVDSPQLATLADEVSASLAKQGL
row,"Inhibition of cell based internalization (at 133 nM antibody concentration, % of inhibition of maximal fluorescent signal)",Binder
1,80%,B1
2,76.3%,B2
3,72.1%,B3
4,84.9%,B4
5,70%,B5
6,71.2%,B6
7,67.2%,B7
8,74.5%,B8
9,49%,B9
10,61%,B10
11,66%,B11
12,85%,B12
13,67.7%,B13

# Target: recombinant human tau (human) (UniProt P10636)
# Assay: SPR, Biacore T200: antibody captured on anti-mouse CM5 chip, recombinant human tau 10-0.14 nM as analyte, global 1:1 fit
# Sequence of recombinant human tau (human) (P10636 other isoform, or with tags, fused parts or gaps limits assumed): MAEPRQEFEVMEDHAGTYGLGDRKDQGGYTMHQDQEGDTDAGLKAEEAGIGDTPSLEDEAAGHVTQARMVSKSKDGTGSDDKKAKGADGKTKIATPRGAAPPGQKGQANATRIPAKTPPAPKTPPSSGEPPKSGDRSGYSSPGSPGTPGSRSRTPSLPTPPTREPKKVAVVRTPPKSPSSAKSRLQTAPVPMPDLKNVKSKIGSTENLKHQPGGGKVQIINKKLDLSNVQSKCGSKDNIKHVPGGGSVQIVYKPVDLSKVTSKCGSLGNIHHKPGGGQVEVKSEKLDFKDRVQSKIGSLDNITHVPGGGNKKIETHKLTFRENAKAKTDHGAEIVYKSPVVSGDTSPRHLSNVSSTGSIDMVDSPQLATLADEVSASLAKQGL
Kd,koff,kon,Binder
5.77 nM,0.00332 s⁻¹,576000 M⁻¹ s⁻¹,B14
